In the experiment the target is GB1-tagged ATG2A short fragment (1374-1404), the WIR-peptide (UniProt Q2TAZ0). Kind of experiment: ITC. (In general: Isothermal titration calorimetry measures the heat released or taken up as one component is titrated into another.)
GB1-tagged ATG2A short fragment (1374-1404), the WIR-peptide, sequence (Q2TAZ0 1374-1404): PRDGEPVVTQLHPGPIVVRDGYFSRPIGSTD
WIPI3-Δloop, Q5MNZ6 R62A, sequence (Q5MNZ6 other isoform, or with tags, fused parts or gaps R62A | mutant): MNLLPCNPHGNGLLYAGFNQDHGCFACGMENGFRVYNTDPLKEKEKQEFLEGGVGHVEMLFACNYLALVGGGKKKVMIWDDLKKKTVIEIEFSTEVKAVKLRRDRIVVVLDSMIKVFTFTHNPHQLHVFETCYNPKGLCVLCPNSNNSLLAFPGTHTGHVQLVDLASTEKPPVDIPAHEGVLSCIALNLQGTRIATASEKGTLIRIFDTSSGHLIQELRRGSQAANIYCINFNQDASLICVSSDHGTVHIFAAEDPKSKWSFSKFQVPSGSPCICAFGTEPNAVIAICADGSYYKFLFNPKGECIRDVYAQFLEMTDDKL
WIPI3-Δloop, Q5MNZ6 R109Q, sequence (Q5MNZ6 other isoform, or with tags, fused parts or gaps R109Q | mutant): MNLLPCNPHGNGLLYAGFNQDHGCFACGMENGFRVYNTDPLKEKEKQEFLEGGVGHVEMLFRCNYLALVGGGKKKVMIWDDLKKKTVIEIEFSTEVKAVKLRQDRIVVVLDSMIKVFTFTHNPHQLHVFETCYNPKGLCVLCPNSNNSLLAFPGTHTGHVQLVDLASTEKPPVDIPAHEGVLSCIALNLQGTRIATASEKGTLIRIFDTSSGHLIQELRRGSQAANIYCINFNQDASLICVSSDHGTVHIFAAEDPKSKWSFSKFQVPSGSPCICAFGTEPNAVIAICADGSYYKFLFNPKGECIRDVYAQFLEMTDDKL
WIPI3-Δloop, Q5MNZ6 Y65A, sequence (Q5MNZ6 other isoform, or with tags, fused parts or gaps Y65A | mutant): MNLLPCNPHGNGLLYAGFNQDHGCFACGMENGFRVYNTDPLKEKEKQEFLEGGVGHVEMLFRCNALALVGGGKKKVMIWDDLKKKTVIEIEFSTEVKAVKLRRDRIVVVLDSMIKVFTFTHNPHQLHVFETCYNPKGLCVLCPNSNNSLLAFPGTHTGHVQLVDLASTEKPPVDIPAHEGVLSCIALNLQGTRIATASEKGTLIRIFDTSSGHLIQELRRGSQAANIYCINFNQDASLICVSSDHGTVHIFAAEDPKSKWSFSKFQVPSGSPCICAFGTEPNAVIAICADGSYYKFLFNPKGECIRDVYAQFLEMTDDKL
WIPI3-Δloop, Q5MNZ6 I96A, sequence (Q5MNZ6 other isoform, or with tags, fused parts or gaps I96A | mutant): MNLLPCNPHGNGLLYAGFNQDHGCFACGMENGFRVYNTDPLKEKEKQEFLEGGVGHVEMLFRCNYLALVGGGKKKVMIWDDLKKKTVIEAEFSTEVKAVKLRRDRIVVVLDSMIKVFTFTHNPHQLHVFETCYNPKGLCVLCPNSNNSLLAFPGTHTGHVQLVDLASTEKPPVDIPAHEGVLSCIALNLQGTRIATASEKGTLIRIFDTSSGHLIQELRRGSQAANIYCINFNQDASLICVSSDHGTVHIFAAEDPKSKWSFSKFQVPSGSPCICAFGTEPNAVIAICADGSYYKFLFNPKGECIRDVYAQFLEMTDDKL
WIPI3-Δloop, Q5MNZ6 F98A, sequence (Q5MNZ6 other isoform, or with tags, fused parts or gaps F98A | mutant): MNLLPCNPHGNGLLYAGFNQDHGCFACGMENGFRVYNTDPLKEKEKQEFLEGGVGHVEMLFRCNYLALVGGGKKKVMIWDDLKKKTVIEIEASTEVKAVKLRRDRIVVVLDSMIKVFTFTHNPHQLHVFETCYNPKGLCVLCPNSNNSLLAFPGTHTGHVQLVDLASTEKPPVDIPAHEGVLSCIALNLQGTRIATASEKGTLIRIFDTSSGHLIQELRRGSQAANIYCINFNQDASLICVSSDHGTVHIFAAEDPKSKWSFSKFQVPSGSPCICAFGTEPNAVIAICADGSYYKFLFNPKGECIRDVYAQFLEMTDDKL
WIPI3-Δloop, Q5MNZ6 F125A, sequence (Q5MNZ6 other isoform, or with tags, fused parts or gaps F125A | mutant): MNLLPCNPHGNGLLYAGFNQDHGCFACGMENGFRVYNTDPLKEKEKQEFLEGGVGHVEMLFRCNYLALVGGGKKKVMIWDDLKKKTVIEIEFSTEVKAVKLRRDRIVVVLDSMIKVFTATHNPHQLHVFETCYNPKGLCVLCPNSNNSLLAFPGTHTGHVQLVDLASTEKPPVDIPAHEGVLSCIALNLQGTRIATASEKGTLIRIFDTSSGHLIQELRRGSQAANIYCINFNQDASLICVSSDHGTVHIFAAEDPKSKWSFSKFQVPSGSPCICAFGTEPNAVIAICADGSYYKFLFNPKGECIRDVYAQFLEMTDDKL
Substance WIPI3-Δloop, Q5MNZ6 Y65A registered a Kd of 76.1 µM. In turn, WIPI3-Δloop, Q5MNZ6 R109Q came in with a Kd of 52.6 µM. WIPI3-Δloop, Q5MNZ6 I96A displayed a Kd of 40 µM. With WIPI3-Δloop, Q5MNZ6 F98A, the Kd is 31.6 µM.

In the case of WIPI3-Δloop, Q5MNZ6 R62A, the Kd was 72.5 µM. The result for WIPI3-Δloop, Q5MNZ6 F125A reads 244 µM.

As usually defined, the Kd is the free concentration of one partner at which half of the binding sites on the other are occupied at equilibrium, for simple one-to-one binding.
